We go through one substance from publication PMC12719470.

The test concerns the target Nanobody-161 IgG1 Y105G. The test is described as follows: BLI; 30 nM Nanobody-161 IgG1 or mutant immobilised on Protein A biosensors (Gator); 4800 nM-300 nM TNFR2-His in Q Buffer (PBS, 0.02% Tween 20, 0.2% BSA); 25 °C; association 120 s, dissociation 180 s; global 1:1 Langmuir fit. For orientation: Biolayer interferometry detects binding as a change in optical thickness at a sensor tip.

pKd: −log10 of the molar value.

TNFR2-His protein, sequence (P20333 23-461): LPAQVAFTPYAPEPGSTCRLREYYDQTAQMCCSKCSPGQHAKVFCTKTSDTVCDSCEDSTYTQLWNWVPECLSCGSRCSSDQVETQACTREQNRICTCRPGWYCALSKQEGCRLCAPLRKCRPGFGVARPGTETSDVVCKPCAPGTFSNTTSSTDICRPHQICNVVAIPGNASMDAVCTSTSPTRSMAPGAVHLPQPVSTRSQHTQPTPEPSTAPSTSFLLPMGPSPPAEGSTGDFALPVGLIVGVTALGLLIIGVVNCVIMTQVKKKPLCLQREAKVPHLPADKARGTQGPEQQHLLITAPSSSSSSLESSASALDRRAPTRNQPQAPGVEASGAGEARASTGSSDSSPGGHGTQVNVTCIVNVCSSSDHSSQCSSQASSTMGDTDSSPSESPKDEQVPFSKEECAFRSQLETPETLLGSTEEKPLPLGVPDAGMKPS
Nanobody-161 IgG1 Y105G, sequence (heavy, as listed by the source): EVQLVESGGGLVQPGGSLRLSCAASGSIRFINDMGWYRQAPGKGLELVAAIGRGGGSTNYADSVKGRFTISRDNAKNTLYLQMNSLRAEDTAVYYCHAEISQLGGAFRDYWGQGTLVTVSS

The term pKd denotes −log10 of the Kd, conventionally taken in molar units. Broadly, the koff is a measure of how fast the partners let go of each other. Low values mean a long-lived complex, high ones a short-lived complex. The term kon denotes the rate constant with which the complex forms. Lower therefore signals slower complex formation. Regarding “TNFR2-His protein (from UniProt P20333 23-461) (receptor)”, the negative logarithm of the Kd (pKd) is 3.67, the koff came out at 0.0917 s⁻¹ and the kon was 429 M⁻¹ s⁻¹.
